In patent US20240287172A1 (SCIRHOM, published 2024):

T1: human iRhom2, endogenously expressed (human, UniProt Q6PJF5 1-856)
T1 construct: also called RHBDF2
T1 sequence: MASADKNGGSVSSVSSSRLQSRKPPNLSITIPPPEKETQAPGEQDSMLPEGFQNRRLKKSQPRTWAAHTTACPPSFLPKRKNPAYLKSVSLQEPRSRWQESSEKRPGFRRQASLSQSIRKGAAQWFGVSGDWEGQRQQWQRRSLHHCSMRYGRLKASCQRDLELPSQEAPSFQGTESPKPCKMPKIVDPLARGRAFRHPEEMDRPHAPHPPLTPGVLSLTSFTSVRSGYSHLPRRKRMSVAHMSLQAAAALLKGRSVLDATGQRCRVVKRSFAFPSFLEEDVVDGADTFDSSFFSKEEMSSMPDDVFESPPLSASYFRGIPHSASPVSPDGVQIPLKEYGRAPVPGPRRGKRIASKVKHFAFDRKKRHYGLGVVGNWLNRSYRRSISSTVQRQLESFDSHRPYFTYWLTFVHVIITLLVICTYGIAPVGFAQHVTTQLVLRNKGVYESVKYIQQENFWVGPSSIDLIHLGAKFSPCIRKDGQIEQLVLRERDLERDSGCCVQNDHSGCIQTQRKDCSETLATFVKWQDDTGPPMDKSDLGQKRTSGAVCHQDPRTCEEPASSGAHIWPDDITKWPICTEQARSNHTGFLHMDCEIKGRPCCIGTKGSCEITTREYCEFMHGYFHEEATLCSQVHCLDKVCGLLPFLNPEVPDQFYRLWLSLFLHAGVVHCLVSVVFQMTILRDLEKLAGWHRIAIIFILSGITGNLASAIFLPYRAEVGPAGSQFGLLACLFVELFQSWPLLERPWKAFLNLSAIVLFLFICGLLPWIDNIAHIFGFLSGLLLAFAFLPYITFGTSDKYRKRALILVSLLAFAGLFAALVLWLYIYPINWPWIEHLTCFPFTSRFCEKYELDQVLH

T2: hiR2-FL-L539A-T7 (human, UniProt Q6PJF5 1-856)
T2 construct: on MEF-DKO cells
T2 sequence: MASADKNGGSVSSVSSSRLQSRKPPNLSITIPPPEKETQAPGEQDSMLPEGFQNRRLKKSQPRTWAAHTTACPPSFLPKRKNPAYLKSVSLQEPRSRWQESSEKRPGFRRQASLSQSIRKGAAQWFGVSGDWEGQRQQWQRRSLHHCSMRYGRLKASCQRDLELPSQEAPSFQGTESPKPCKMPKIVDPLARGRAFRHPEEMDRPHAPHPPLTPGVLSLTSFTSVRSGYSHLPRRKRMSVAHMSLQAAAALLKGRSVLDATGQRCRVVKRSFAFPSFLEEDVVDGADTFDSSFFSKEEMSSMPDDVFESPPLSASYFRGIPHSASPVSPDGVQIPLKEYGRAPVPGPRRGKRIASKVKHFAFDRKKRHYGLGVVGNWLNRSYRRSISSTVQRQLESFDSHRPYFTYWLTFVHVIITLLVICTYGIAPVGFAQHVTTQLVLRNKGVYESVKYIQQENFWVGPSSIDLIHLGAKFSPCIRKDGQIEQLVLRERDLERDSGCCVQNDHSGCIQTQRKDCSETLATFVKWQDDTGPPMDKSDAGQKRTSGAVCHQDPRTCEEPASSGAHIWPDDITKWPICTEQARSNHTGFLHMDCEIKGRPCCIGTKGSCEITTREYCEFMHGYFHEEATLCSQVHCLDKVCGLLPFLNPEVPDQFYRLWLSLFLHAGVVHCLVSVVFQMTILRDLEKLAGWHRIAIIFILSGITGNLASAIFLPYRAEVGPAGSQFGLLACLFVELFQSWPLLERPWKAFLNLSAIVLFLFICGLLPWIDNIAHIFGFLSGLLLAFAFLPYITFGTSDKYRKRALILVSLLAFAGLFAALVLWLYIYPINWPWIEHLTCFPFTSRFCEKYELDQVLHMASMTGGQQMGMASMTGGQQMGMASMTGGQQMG

B1: antibody 34 (antibody, V domains shown)
VH: QVTLKESGPGILQPSQTLSLTCSFSGFSLSTFSLGVGWIRQSSGKGLEWLAHIWWDDEKYYNPALKSRLTISKDTSKNQVFLKIANVDAADTATYYCARAYYSKSYYALDYWGQGTSVTVSS
VL: DIQMTQSPSSLSASLGERVSLTCRASQEISGYLSWLQQKPDGTIKRLIYAASTLDSGVPKRFSGSRSGSDYSLAISSLESEDFADYYCLQYANFPFTFGSGTKLEIK
notes: mouse IgG, kappa light chain; also called clone #34; purified antibody 34
B2: antibody 48 (antibody, V domains shown)
VH: QVQLQQSGTELVRPGTSVKVSCKASGYAFTNYLIEWVKQRPGQGLEWIGVINPGSGFTKYNEKFKGKATLTADKSSSTVYMHLSSLTSEDSAVYFCARGLYRAMDYWGQGTSVTVSS
VL: DIQMTQSPASQSASLGESVTITCLASQTIATWLAWYQQKPGKSPQLLIYGATTLADGVPSRFSGGGSGTKFSFKISSLQAEDFVSYYCQQLYSTPYTFGGGTKLEIK
notes: mouse IgG, kappa light chain; also called clone #48; purified antibody 48
B3: antibody 50 (antibody, V domains shown)
VH: QVQLQQSGAELVRPGASVKVSCKASGYAFSNYLIEWVKQRPGQGLEWIGVINPGSGFTKYNEKFKGKATLTADKSSSTAYMQLSSLTSEDSAVYFCARGLYRAMDYWGQGTSVTVSS
VL: DIQMTQSPASQSASLGESVTITCLASQTIGTWLAWYQQKPGKSPQLLIYAAASLADGVPSRFSGGGSGTKFSFKISSLQAEDFVNYYCQQIYSTPYTFGGGTKLEIK
notes: mouse IgG, kappa light chain; also called clone #50; purified antibody 50
B4: antibody 5 (antibody, V domains shown)
VH: QVTLKESGPGILQPSQTLSLTCSFSGFSLSTFGMGVGWIRQPSGKGLEWLAHIWWDDEKYYNSALKSRLTISKATSKNQAFLKIANVDTADTATYYCARISNYGSNYWYFNVWGTGTTVTVSS
VL: QVVLTQSPALMSASPGEKVTMTCSAGSSVSCMYWYQQKPGSSPRVLIYDTSNLASGVPARFTGSGSGTSYSLTISRMEAEDAASYYCQQWNSYPLTFGAGTKLELK
notes: mouse IgG, kappa light chain; also called clone #5; purified antibody 5
B5: antibody 42 (antibody, V domains shown)
VH: QVTLKESGPGILQPSQTLSLTCSLSGFSLSTFGRGVGWIRQPSGKGLEWLAHIWWDDEKYYNPALKSRLTISKDTSKNQVFLRIANVDTADTATYYCARIQNYGSNYWYFDVWGTGTTVTVSS
VL: LIVLTQSPAIMSASPGEKVTMTCGATSRISYMFWYQQKPGSSPRVLIYDTSNLASGVPVRFSGSGSGTSYSLTISRVEAEDVATYYCQQWNSYPLTFGAGTKLELK
notes: mouse IgG, kappa light chain; also called clone #42; purified antibody 42
B6: antibody 43 (antibody, V domains shown)
VH: QVALKESGPGILQPSQTLSLTCSFSGFSLSTFGMGVGWIRQSSGKGLEWLANIWWDDDKYYNPALKSRLTISKDASKNQAFLKIANVDTADTATYYCARIGNYGSNYWYFDVWGTGTTVTVSS
VL: QIVLTQSPAIMSASPGERVTMTCSANSRISYMYWYQQKPGSSPRLLIYDTSNLASGVPVRFSGSGSGTSYSLTISRMEAEDAATYNCQQWSSYPLTFGAGTKLELK
notes: mouse IgG, kappa light chain; also called clone #43; purified antibody 43
B7: antibody 44 (antibody, V domains shown)
VH: QVTLKESGPGILQPSQTLSLTCSFSGFSLSTFGMGVGWIRQPSEKGLEWLAHIWWDDDKYYNPALKSRLTISKDTSKNQIFLKITNVDTAETATYYCSRIGNYGSNYWYFDVWGTGTTVTVSS
VL: QIVLTQSPAVMSASPGEKVTMTCTASSSVYYMYWYQQTPGSSPRLLIYDTSNLASGVPVRFSGSGSGTSYSLTISRMEAEDAATYYCQQWNTYPLTFGAGTKLELK
notes: mouse IgG, kappa light chain; also called clone #44; purified antibody 44
B8: antibody 22 (antibody, V domains shown)
VH: QVTLKESGPGILQPSQTLSLTCSFSGFSLSTFGMGVGWIRQPSGKGLEWLAHIWWDDEKYYNSALKSRLTISKATSKNQVFLKIANVDTADTATYYCARISNYGSNYWYFNVWGTGTTVTVSS
VL: QVVLTQSPALMSASPGEKVTMTCSAGSSVSYMYWYQQKPGSSPRVLIYDTSNLASGVPARFTGSGSGTSYSLTISRMEAEDAATYYCQQWNSYPLTFGAGTKLELK
notes: mouse IgG, kappa light chain; also called clone #22; purified antibody 22
B9: antibody 16 (antibody, V domains shown)
VH: QVTLKESGPGILQPSQTLSLTCSFSGFSLSTFALGVGWIRQPSGRGLEWLAHIWWDDDKYYNPALKSRLTISKDTSKNHVFLKIANVDTADTATYYCARITTYYYGMDYWGQGTSVTVSS
VL: DIVLSQSPATLSVTPGDSVSLFCRASQSIGNHLHWYQQESHASPRLLIKYASQSISGIPSRFSGSGSGTDFTLSINSVETEDFGMYFCQQSYNWPLTFGAGTKLELK
notes: mouse IgG, kappa light chain; also called clone #16; purified antibody 16
B10: antibody 3 (antibody, V domains shown)
VH: QVTLKESGPGILQPSQTLSLTCSFSGFSLTTFAMGIGWVRQPSGKGLEWLAHIWWDGEKYNNPVLKSRLTISKDTSKNQVFLRIANVDTPDTATYYCARISSIYYIIDNWGQGTSVTVSS
VL: DIVLTQSPATLSVTPGHSVSLSCRASQSISNNLHWYQKKSHESPRLLIKYVSQSISGIPSRFSGSGSGTDFTLSINSVETEDFGMYFCQQSYNWPLTFGAGTKLELK
notes: mouse IgG, kappa light chain; also called clone #3; purified antibody 3

Legend:
[1] = molecular target: T1, human iRhom2, endogenously expressed; experiment: indirect FACS scatchard analysis on THP-1 cells
Method: In brief, human THP-1 cells (American Type Culture Collection, USA) were harvested with 10 mM EDTA in PBS, washed and resuspended in FACS buffer (PBS, 3% FBS, 0.05% sodium azide), and seeded in Nunc U-bottom 96-well plates (Thermo Fisher Scientific, USA) at approximately 3×10⁵ cells per well. In order to pellet cells and remove supernatants, the plates were centrifuged at 1,500 rpm and 4° C. for 3 minutes. For primary staining, cells were resuspended in 100 μl per well of either FACS buffer alone (controls) or serial two-fold dilutions (in total 22 concentrations) of the purified antibodies 3, 5, 16, 22, 34, 42, 43, 44, 48, and 50 of the invention in FACS buffer starting at 40 μg/ml and incubated on ice for 1 hour. Afterwards, plates were centrifuged at 1,500 rpm and 4° C. for 3 minutes and washed twice with 200 μl per well of FACS buffer. For secondary staining, cells were spun down and resuspended in 100 μl per well of PE-conjugated goat anti-mouse IgG F(ab′)2 detection fragment (Dianova, Germany) diluted 1:100 in FACS buffer. Protected from light, the cell suspensions were incubated on ice for 1 hour. Plates were then centrifuged at 1,500 rpm and 4° C. for 3 minutes and washed three times with 200 μl per well of FACS buffer. Finally, cells were resuspended in 150 μl per well of FACS buffer and analyzed using a BD Accuri™ C6 Plus flow cytometer (Becton Dickinson, Germany). Applying Prism8 software (GraphPad Sowtware, USA), the respective KD value for each of the antibodies of the invention were calculated.

hiR2-FL-L539A-T7 = molecular target: T2, hiR2-FL-L539A-T7; experiment: FACS on MEF-DKO cells

Binder	Kd [1]	binding result (hiR2-FL-L539A-T7)
B1	1.94 nM	no binding (tested: 3 µg/ml)
B2	1.73 nM	–
B3	1.43 nM	–
B4	3.35 nM	no binding (tested: 3 µg/ml)
B5	1.9 nM	no binding (tested: 3 µg/ml)
B6	4.55 nM	no binding (tested: 3 µg/ml)
B7	0.44 nM	no binding (tested: 3 µg/ml)
B8	2.04 nM	no binding (tested: 3 µg/ml)
B9	0.34 nM	–
B10	2.97 nM	–
